Experimental data published in patent US20070172423A1, “Composition and method for modulating vasculogenesis for angiogenesis” (priority 1998, published 2007).

Legend:
[1] = test system: human bone marrow-derived AC133+CD34+ cells; experiment: Human bone marrow cell adherence and differentiation assay; type: cell-based; settings: 50 ng/ml
Description: Enriched human BM derived AC133+CD34+ cells (Clonetics) at 10^5/ml were cultured for 3 days in HPGM (Clonetics) in a 6-well plate (Becton Dickinson). Cells were then seeded in collagen coated 12-well plates in EBM (Clonetics) medium containing 4% FCS and VEGF165 (R&D Systems) or PDGF-CC (50 ng/ml each). Growth factors were added every two days and media were refreshed at 75% every four days. For adherence assay, 2.5×10^4 of non-adherent cells/ml were cultured in the same condition on chamber slides coated with collagen, or in 96-well plate coated with 0.3% gelatin in PBS. Cells were then washed three times with PBS, fixed and stained with May-Grünwald Giemsa (Sigma) after two weeks of culture on chamber slides (Becton Dickinson). The number of viable cells was estimated by ATP quantification using cellTiter-glo luminescent cell viability assay (Promega) according to the manufacturer's instructions. For cell surface marker staining, cells (2×10^4/well) cultured on collagen-coated culture slides for two or four weeks were fixed (45 min, 25° C.) and permeabilized (45 min, 25° C.) using a Intrastain Kit (DAKO), and then labeled with CD31-FITC (Becton Dickinson), CD144-FITC (Pharmingen), CD34-FITC (Becton Dickinson) or SMC-Actin CY3 (Sigma). Single or double-labeled cells were analyzed using laser confocal immunofluorescence microscopy.
Upon stimulation by growth factors or cytokines, bone marrow stem/progenitor cells can differentiate into ECs and SMCs and thereby contribute to angio/arteriogenesis (Orlic et al., Nature, 2001 410:701-5; Kawamoto et al., Circulation, 2001 103:634-7; Asahara et al., Circ Res, 1999 85:221-8). The potential role of PDGF-CC in the differentiation of bone marrow progenitors into vascular cells has, however, not been investigated thus far. We therefore cultured human bone marrow-derived AC133^+CD34^+ cells—a population enriched for stem/progenitor cells (Miraglia et al., Blood, 1997 90:5013-21; Yu et al., J Biol Chem, 2002 277:20711-6; Donnelly et al., Leuk Lymphoma, 2001 40:221-34)—and stimulated them with PDGF-CC, using VEGF as a control (50 ng/ml each).

[2] = test system: bovine aorta endothelial cells (BAEC); experiment: Cell migration assay, BAEC; type: cell-based; settings: wounded monolayer, 20 hours, serum-free medium
Description: Cell migration assays were performed on growth arrested confluent HMVEC, BAEC or hSMC cells. Cell monolayers were wounded with a rubber policeman and washed with serum-free medium. Dishes were then incubated for 20 hours in serum-free medium containing VEGF165, PDGF-AA, (R&D Systems, Minneapolis USA) or PDGF-CC. Each assay included two dishes per condition and was repeated three times independently. Cells were photographed at 40× magnification, and migration percentage corresponding to the ratio between area of the cells and the total area of the wound (Biocom visiol@b 2000 version 4.52, San Diego). For HMVEC proliferation assay, cells were seeded in 96-well plates (5 wells per condition), and incubated with VEGF, PDGF-AA, or PDGF-CC (50 ng/ml) after serum starvation. After 7 days, viable cells were counted using the cell Titer-glo luminescent cell viability assay. For NIH-3T3 and hSMC proliferation assay, cells cultured in 96-well plates were serum-starved overnight, followed by treatment with growth factors at different concentrations. Two days later, cell numbers were counted and proliferation percentage calculated, using cells cultured in medium containing 10% serum as control. Aortic ring assay was performed as described 51. […] Aortic rings were analysed at day 9 of culturing. […]

B1: PDGF-CC: recombinant human PDGF-CC core domain homodimer, residues 230-345 of full-length PDGF-C (SEQ ID NO:40), produced in baculovirus infected insect cells (protein)
chain: GRKSRVVDLNLLTEEVRLYSCTPRNFSVSIREELKRTDTIFWPGCLLVKRCGGNCACCLHNCNECQCVPSKVTKKYHEVLQLRPKTGVRGLHKSLTDVALEHHEECDCVCRGSTGG
modifications: homodimer; PDGF-C core domain
- SMA positive cells ([1]; four weeks): > 95%
- expression of CD144 and CD31 ([1]; four weeks): lost their expression
- adherence of AC133+CD34+ cells ([1]; two weeks of stimulation): enhanced
- expression of EC surface markers CD144 (VE-cadherin) and CD31 (PECAM) ([1]; two weeks of stimulation): induced
- expression of smooth muscle cell marker SMA ([1]; two weeks of stimulation): induced
- migration of BAEC [2]: enhanced
